The values that follow come from publication PMC9271601 (Structure (London, England : 1993), 2022).

In experiment [1] the target is H3 (A/Texas/50/2012) HA probe (Influenza A virus A/Texas/50/2012 (H3N2), UniProt R4L1D1, strain, biotin (biotin protein ligase, AviTag)). In words: flow cytometry on cells.
Experiment [2] deals with H3N2 A/Victoria/361/2011 hemagglutinin trimer, wild type (Influenza A virus A/Victoria/361/2011 …, UniProt A0A097PF39, strain). The experiment can be described thus: BLI.

B1: 1D12 B cell receptor on the donor's B cell (antibody, V domains shown)
VH: QLVQSGAEVKKPGASVKVSCKASGYTFTGYYLHWVRQAPGQGLEWMGRINPDTGGTNYAQKFQGRVSMTRDMSISTHYMELSRLTSDDTAVYYCATKRGAVTAMVYYYFYGMDVWGQGTTVTVSS
VL: DIVMTQSPLSLSVTPGEPASISCRSSHSLLHLNGYNYLDWYLQKPGQSPQLLIYLGSNRASGVPDRFSGSGSGTDFTLKISRVEAEDVGIYYCMQALRTPPGLTFGGGTKVDIK
Take B1: in experiment [1], the binding result was “binds”.

B2: 315–19-1D12 Fab (Fab, V domains shown)
VH: QLVQSGAEVKKPGASVKVSCKASGYTFTGYYLHWVRQAPGQGLEWMGRINPDTGGTNYAQKFQGRVSMTRDMSISTHYMELSRLTSDDTAVYYCATKRGAVTAMVYYYFYGMDVWGQGTTVTVSS
VL: DIVMTQSPLSLSVTPGEPASISCRSSHSLLHLNGYNYLDWYLQKPGQSPQLLIYLGSNRASGVPDRFSGSGSGTDFTLKISRVEAEDVGIYYCMQALRTPPGLTFGGGTKVDIK
Take B2: the binding result in experiment [2] was “binds”.
